Source: the domain aggregation screens of Martell et al. (2025)

assay: soluble fraction after stress (log2 fold change); higher = more stays soluble; pooled small domains, quantitative proteomics; details: stress: pH 4
In short: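 High-throughput quantitative proteomics was run on pooled custom libraries of small protein domains following pH 4 stress. Fold changes are on a log2 scale; higher values mean more of a domain remained soluble. The fold change in soluble amount is taken as a measure of aggregation propensity.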

Row | Sequence | soluble fraction (log2)
1 | HMLKDGPIGAYADSVIRDIIEKMERFSKEHINVDMLKIHEKIMLIDEPIIRMALLDEFHRVSHDN | -1.2
2 | HMEISLEAKMAEVREQVRGLAGINFRTLLEMQASRSNIIVTFLAILELMKIGAIQIRQEEIFGEIIIDSRD | -0.28
3 | HMPDLQKAIDDLLQVVDKRLNTSFESILNEVNSEKEAVAFFLALLEAVRWGFVKASQSDEGIKIEK | -0.387
4 | HMTAAPEVRVEGLFKGAAVLKIDGQQVMLKKGRSHSSGVTLVDANAHRAIVEIDGQRHELALHMA | 0.0925
5 | HMEEQKYEYHLGDVVYLGVDKYEILGITNNIVTLYDPEFPLLNKQLDFDEFEKRVKDNYANEHLKVT | -0.545
6 | HMSLPTYVQISEAIARRITAGQWLDGERLPPERTMAAEFGVAVGTLRKALSRLQDQKLLRRLQGSGNYINI | -0.264
7 | HMGSDQEAAMARQDRLSTLVDYVVERGSVHVDDIVADLGVSPATVRRDLDALAAQQLIIRTRGGATANHT | -0.552
8 | HMPGVLEVDTGGVAAVAYVDGVEVGRVPGELQIAAGTKTLMLKADRYLDYVQSLEIDGLGKRQLLVATLQS | -0.831
9 | HMNLSSETLSEMEARIGQMGVVELQDRRAYLLQEQEGTQNPSRLKEIADELSAIQKALVALV | -0.401
10 | HMSEVPVLVAKTDIKELELIDDRKVTLINVPQKFKMPGSFNSPEEVYNTIAAVPIKEGEQITKPRVTWP | -0.443
11 | HMLVVEPSAELKTIIDKTASFVARNGPEFEARIKNEQNNAKFSFLQPNDPFNPYYRAKIVELGGTV | -0.174
12 | HMFLTSDEGKIMQLLEDKQRITRKDAQELLGVSQSTAGRILKTLVDNGQITQRGGGRTTRYELIK | 0.22
13 | HMAFDDAHYKDMITSYLKKFKKGNRSEIENLIIPKLSEVLVEKQKKDKVKNLLQALRKDNQIRLKGKYWYL | 0.196
14 | HMRSLATFEEEKIALRFWNYLQSEGIKSTLEEEGPRDWVIWVIDEEKIPSATQSLEKFNLNPDDPAFSN | -0.137
15 | HMSQISKLWRPSEDVTEILTRSGMDSEFLEGLIPEFIIYWSERADVLVSYNSKFIEHARLKWAQHSAEIKT | -1.94
16 | HMKNDKLLIFMELKGISRTQLSKSTGIPASTLGRIINGDVQKIKAVYMEAIANALDTSIHTIFDV | -0.352
17 | HMQILPAFLPENPELRARLANHSLEELTEILKQYKTLHNSTDVDTVKRAIRAIEIEEYYAVHPV | -0.635
18 | HMGDFLLTPHRGRSADFVIGNPPYIRLEDVPNDISDAYRAEYASMPGRADIHVGFYEKGLDL | -0.506
19 | HMNPMRYLVVPSQETETWKEYLVSKEWLERKYRIETEGDNRAIPLSNLFPKIVPIELSNLEIIEKEAFS | -1.09
20 | HMPEFKDMLKFFRMREHLSQSELAEKLGISASTVSMYEVGRRQPDFETEEKIADFFNTDLNTLRG | -0.169
21 | HMNQTEKSKITHNELLKAAHSLFIEQGFNHTTITDIVTRAGYSTGIFYKHYKTKTDILVELWTNYIE | -1.28
22 | HMRGAIKMAEEQMAGHKKIGSISGTAPTQGELEKKFAMAAAQMGARYYVITGLSNNNYAFGNADIY | -0.194
23 | HMTNVVSKNKAKEIAMNIINDTVLQGQTAATFKEIVKANGVYVVKIEIQGQEYTSYITKDGKIVFPYGVEV | -0.661
24 | HMKVYPIMEAIANNNIELVKLLLEYHADLNIKDSNGNTPLALAKETGAKEVEDLLLQWMKQHT | -0.834
25 | HMDPQDGTVKFFNGARGFGFITPDGGGADVFVHVSAVERAGLTQLVEGQRVNFQTLPDTKGKGPKAVNLKV | -0.531
26 | HMGPELGENEKLIFDIIKKESKMELGILKAQVDLSNKKWDKALKGLATHGLTKVNKTDDGLFIELI | -0.942
27 | HMVEVPNVIGMTKPELTQQFVNLKLDGSGEGDVVVQQSPSEGSKVKEGSTVRVYFG | 0.137
28 | HMQDTVKNVFGAFTIFTDKPFAIGDTINVNGLEGTVVDVGMRSTQILGYDRRITSYPNYKITDSSIVNISS | -0.636

Row | Sequence | soluble fraction (log2)
29 | HMGEPLSPDARALTNVLRHYRGWAEPGELARKSGLGSRERVLTAAQSLVNAGLADIERGMVRPTAALMEVQ | -0.0354
30 | HMNLDVPGIIKRAKQALNLKRDSELAEFLGVSRATVTNWAARNSIDFRLLLDKLGNTVDYNWLLLGKGNPK | -0.188
31 | HMGVKHKHKGAGELLAALRTMFPNSSVSTLRKMLTQGRVVLNGEVVHRAKHELTDGDTIEVLERQRAER | 0.228
32 | HMEPEYIGELEKRIKKLKTHTYSSIDRLMKSISKKYKITTQVLHDDFKNKHNEIPDEWVKQF | 0.22
33 | HMSEQGVITAKFASIVGNQNIQLVMFPDSVYLKGQVSSEEEKKRAETVASSLIQDRKIVNLIEFE | -0.638
34 | HMDVEMLIDKYQLNDSEAEVLRFMKKNRQSLKTIGIRDVAKATYVSTATIINMAKKIGYSGYSELVFALGN | -0.319
35 | HMPRTEILMVDEEMEGERLDAFVAEQLDELSRSLVKTLIENGEIRVDGKQQKPSYRLKAGEEIIVEIPA | -0.438
36 | HMEEDPILVAQRFLNIFRQLHIFDQQRREEFNSMILALPPEIRGTFGVLPGGSVLQEYVDELEISKGMA | -1.33
37 | HMAPQQARAAKTRVKLLDAAATVVRRDGIQAMTLARVAEEAGVSKGGLLHHFGSKEELVTGMLEQ | -0.402
38 | HMESYWVVLRPMAAGTQIGANDLGYRSVALGAAAKNYLAASTNPIGSITRRRLVAGELLQGSSLTDDARA | 0.185
39 | HMGGPEPIPAQIREGDTVYVTKFKQLGLVLKISEDTAEVQIGPLRATVAKTELSKVDATATEHR | -0.0107
40 | HMEHIVNELDRKVIDYLQSHYDAKLNDIAQGIGVSKATATKSIRKLVQTGIVHVVGSSGTGTSYNLTE | 0.0867
41 | HMASSRPLAEGDFVRLRAGGATGRIESIKGQKATVQMGGLKVHAPLRDLLPVAEPIKQVSTASNT | 0.203
42 | HMTLREQISALIKQGKLTQAKLARETGVNGGALSAWINGKYTGNVETVEEPIKHWMALNERK | ≥ 0.43
43 | HMSQRINLNSASIEDMQSLDISNEKIDSIIDYRNRYGNIHNIYELLKIPGITIGDIHSIRNAVTVEIPH | -0.472
44 | HMPPAPGHDLTEREREVLRLLVEGLSNQEISDRLVISQSTVKNHVSSVLSKLDAANRAEAVALALKNQL | -0.547
45 | HMSTIKEKIIQYLDFKGISKYDFYQKTGVSNGVLSQKSGMSEDNIMRFLSYYDDINTDWLFYGKGEMIKT | -1.37
46 | HMGRPTLEQLLDRAQAMGVPRERYAAYADRRWGRGWRVNPHGRGRAWDELDRYRNDPAGYLDKIEVELNQL | -0.0109
47 | HMKRNTKAEVLEILLNSGETPVSGERLAENLGISRNAVWKAVTALKEDGYNISAKRNSGYILNKS | 0.376
48 | HMYVQDPVDRLVLESALRLLREQEREIIFLHLVAGLKHREIAGLLHLPLSTVLSGYRRALTKMKSYLEE | 0.0239
49 | HMIETLGDATFKRLKAMILDGTLEPGTRLSEKKFADHLGVSRTPVREAIGQLVSEGLAKRSAGSAPVVSS | 0.069
50 | HMSIYDAPIEDLKFSTRIFNSLKRADIHTVADLIAHSRDDLMKVRNLGATSLDELIEKLGTHGLQLADP | -0.356
51 | HMSTNDIFISGDKLVLKNTTGQMDVFDMAGRKVLSSTNNVSEMNVSSLPKGVYVVSASIGGSKMKAKVYK | 0.0276
52 | HMISQLRGKVLGTDRDALVIDVGGVGFRVSATAGARALAGQSGNEARLFTEMVVREDSIDLFGF | -0.245
53 | HMQENFYMILESEERRVLDVLVADQPESVATFLKLVSPFPNYKIILEHINEKALDFYEETVI | -0.666
54 | HMHLTRYQYKVETEQEAVGLKELSSVHDLQIKENEATFQADSDAIDEILKTLLLYGVKKLEATPPTLED | -1.05
55 | HMELLSVPSRLGTFFLGGEAGHIIRLYLPGDPTPRIAEHETPVLSEARRQLLEYLAGRRTAFSFPL | -0.223
